B1: A25 (antibody, V domains shown)
VH: QVQLVESGGGVVQPGRSLRLSCAASGFTFSSYGMHWVRQAPGKGLEWVGVIWYDGSIKYYADSVKGRFTISRDNSMNTLNLQMNSLRAEDTAVYYCAGDILTGSFDYWGQGTLVTVSS
VL: EIVLTQSPATLSLSPGERATLSCRASQSVSSYLAWYQQKPGQAPRLLIYDASNRATGIPARFSGSGSGTDFTLTISSLEPEDFAVYYCQQRNNWPYTFGQGTKLEIK
notes: Tested as full-length mAb expressed in CHO cells; also called antibody 25; L25H25
B2: A27 (antibody, V domains shown)
VH: QVQLVQSGAELVRPGTSVKLSCRASGYTFTTYWMHWVKQRPGQGLEWIGVIDPSDSYTYYNQKFKGKATLTVDTSSSTAYMQLSSLTSEDSAVYFCARNWDYWGQGTTLTVSS
VL: AIQLTQSPSSLSASVGDRVTITCRASQGISSALAWYQQKPGKAPKLLIYDASSLESGVPSRFSGSGSGTDFTLTISSLQPEDFATYYCQQFNDYALTFGGGTKVEIK
notes: Tested as full-length mAb expressed in CHO cells; also called antibody 27; L27H27
B3: A13 (antibody, V domains shown)
VH: QVQLVQSGAEVKKPGASVKVSCKASGYTFTTYGISWVRQAPGQGLEWMGWISAHNGNTNYAQKFQGRVTMTTDTSTSTAYMELRSLRSDDTAVYYCVRDGAVADYYYGMDVWGQGTTVTVSS
VL: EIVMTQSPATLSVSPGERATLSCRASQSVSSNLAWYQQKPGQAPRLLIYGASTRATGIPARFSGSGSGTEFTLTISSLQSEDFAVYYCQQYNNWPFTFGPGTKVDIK
notes: Tested as full-length mAb expressed in CHO cells; also called antibody A13; L13H13
B4: A18 (antibody, V domains shown)
VH: QVQLVQSGTEVKKPGASVKVSCQASGYTFTSYDISWVRRAPGQGLEWMGWISAYNGNTNYAQKLQGRVTLTTDTSTSTAYMELRSLRSDDTAVYYCARRYYDILTEGGYYYVLDVWGQGTTVTVSS
VL: AIRMTQSPSSFSASTGDRVTITCRASQGISSYLAWYQQKPGKAPTLLIYAASTLQSGVPSRFSGSGSGTDFTLTISCLQSEDFATYYCQQYYSDPPTFGQGTKVEIK
notes: Tested as full-length mAb expressed in CHO cells; also called antibody 18; L18H18
B5: A15 (antibody, V domains shown)
VH: QVQLQESGPGLVKPSETLSLTCTVSGGSISSYYWSWIRQPPGKGLEWIGYIYYSGSTNYNPSLKSRVTISEDTSKNQFSLKLSSVTAADTAVYYCARDEGATFFDYWGQGTLVTVSS
VL: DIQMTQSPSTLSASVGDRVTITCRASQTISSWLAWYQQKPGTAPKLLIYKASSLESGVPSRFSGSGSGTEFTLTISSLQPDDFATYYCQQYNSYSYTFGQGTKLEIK
notes: Tested as full-length mAb expressed in CHO cells; also called antibody 15; L15H15
B6: A28 (antibody, V domains shown)
VH: QVQLVESGGGLVKPGGSLKLSCAASGFTFSDYGMHWVRQAPEKGLEWVAYISSGSFAIYYADTVRGRFTISRDSAKNTLFLQMTSLRSEDTAMYYCARRGPYPYYYSMDYWGQGTSVTVSS
VL: AIQMTQSPSSLSASVGDRVTITCRASQGISSALAWYQQKPGKAPKLLIYAASTLQSGVPSRFSGSGSGTDFTLTISSLQPEDFATYYCLQDYNYPWTFGQGTKVEIK
notes: Tested as full-length mAb expressed in CHO cells; also called antibody 28; L28H28
B7: A12 (antibody, V domains shown)
VH: QVQLVESGGGVVQPGRSLRLSCAASGFTFSSYGMHWVRQAPGKGLEWVAVIWYDGSNKYYADSVKGRFTISRDNSKNTLYLQMNSLRAEDSAVYYCVCNPFDYWGQGTLVTVSS
VL: DIQMTQSPSSLSASVGDRVTVTCRSSQGIAHYLAWYQQKPGKVPKVLLYAASTLQSGVPSRFSGSGSGTDFTLTISSLQPEDVATYYCQKYNSAPYTFGQGTKLEIK
notes: Tested as full-length mAb expressed in CHO cells; also called antibody A12; L12H12
B8: A26 (antibody, V domains shown)
VH: B7 VH with S31D, A61T, N84S, S91A, V97A, C98V
VL: B7 VL with V21I, T22S, S25A, A30S, H31N, L48I, A50G
notes: Tested as full-length mAb expressed in CHO cells; also called antibody 26; L26H26
B9: A19 (antibody, V domains shown)
VH: QVQLVESGGGVVQPGRSLRLSCAASGFTFSNYGMYWVRQAPGKGLEWVAVIWYDGSNKYYADSVKGRFTISRDNSKNTLYLQMNSLRAEDTAVYYCAGGGDILTGDYWGQGTLVTVSS
VL: DIQMTQSPSSLSASVGDRVTITCRASQGIRNDLGWYQQKPGKAPKRLIYAASSLQSGVPSRFSGSGSGTEFTLTISSLQPEDFATYYCLQYKSYLYTFGQGTKLEIK
notes: Tested as full-length mAb expressed in CHO cells; also called antibody 19; L19H19
B10: A21 (antibody, V domains shown)
VH: QVQLVQSGAEVKKPGASVKVSCKASGYTFTSYYMHWVRQAPGQGLEWMGIINPSGSSTSYAQKFQGRVTMTRDTSTSTVYMELSSLRSEDTAVYYCARYGVWGSYRSLDYWGQGTLVTVSS
VL: B6 VL with S30R, S31N, A32E, A34G, Y49C, T53S, N93I, W96Y, V104L
notes: Tested as full-length mAb expressed in CHO cells; also called antibody 21; L21H21
B11: A20 (antibody, V domains shown)
VH: EVQLVESGGGLVQPGGSLRLSCAASGFTFSFYDMHWVRQAKGKGLEWVSAIGTAGDTYYPGSVKGRFTISRENAKNSLYLQMNSLRAGDTAVYYCARGYCSTTNCFADYFDYWGQGTLVTVSS
VL: DIQLTQSPSFLSASVGDRVTITCRASQGISNYLAWYQQKPGKAPKLLIYAASTLQSGVPSRFSGSGSGTEFTLTISSLQPEDFATYYCHQLNSFPLTFGGGTKVEIK
notes: Tested as full-length mAb expressed in CHO cells; also called antibody 20; L20H20
B12: A23 (antibody, V domains shown)
VH: QVQLVESGGGVVQPGRSLRLSCVASGFTFSNYGMHWVRQAPGKGLEWVAIIWYDGSIKYYADSVKGRFTISRDNSKNTLHLQMNSLRAEDTAVYYCARWGIYFDYWGQGTLVTVSS
VL: EIVMTQSPATLSVSPGERATLSCRASQSVSSNLAWYQQKPGQAPRLLIYGASTRATGIPARFSGSGSGTEFTLTISSLQSEDFAVYYCQQYHNWPLTFGGGTKVEIK
notes: Tested as full-length mAb expressed in CHO cells; also called antibody 23; L23H23
B13: A24 (antibody, V domains shown)
VH: QVQLVESGGGVVQPGRSLRLSCAASGFTFSDSGMHWVRQAPGKGLEWVAVIWYDGSKKYYVDSVKGRFTISRDNSKNTLYLQMNSLRAEDTAVYYCATEGDYWGQGTLVTVSS
VL: B12 VL with S14F, A34G, I48M, A55V, H92N, N93T, L96R, G100Q
notes: Tested as full-length mAb expressed in CHO cells; also called antibody 24; L24H24
B14: A16 (antibody, V domains shown)
VH: QVQLVESGGGVVQPGRSLTLSCAASGFTFSNYGMYWVRQAPGKGLEWVAVIWYDGSNKYYADSVKGRFTISRDNSKNTLYLQMNSLRAEDTAVYYCAGGGSYSGDYWGQGTLVTVSS
VL: DIQMTQSPSSLSASVGDRVTITCRTSQDIRNDLGWYQQKPGKAPKRLIYAVSSLQSGVPSRFSGSGSGTEFTFTISSLQPEDFATYYCLQYNTYPFTFGPGTTVDIK
notes: Tested as full-length mAb expressed in CHO cells; also called antibody 16; L16H16
B15: A17 (antibody, V domains shown)
VH: B14 VH with T19R, N31S, Y35H, K58Q, Y80F, Y95F, S101N, S103Y, Y106F
VL: B9 VL with K92I, L95P, Y96W, L104V
notes: Tested as full-length mAb expressed in CHO cells; also called antibody 17; L17H17
B16: A22 (antibody, V domains shown)
VH: QVQLVESGGGVVQPGRSLRLSCAASGFTFSNYGMHWVRQAPGKGLEWVAVIWYDGSNKYYADSVKGRFTISRDNSKNTLYLQMNSLRAEDTAVYYCARLYYYDSSGYYPDAFDIWGQGTMVTVSS
VL: B9 VL with Y91H, K92N, L95P, Y96F, Q100P, L104V
notes: Tested as full-length mAb expressed in CHO cells; also called antibody 22; L22H22

From US20220064302A1 (GIGAGEN, published 2022) come the findings set out here.

Positions count from the first letter of the chain named.

T1 sequence (Q15116 25-170 limits assumed): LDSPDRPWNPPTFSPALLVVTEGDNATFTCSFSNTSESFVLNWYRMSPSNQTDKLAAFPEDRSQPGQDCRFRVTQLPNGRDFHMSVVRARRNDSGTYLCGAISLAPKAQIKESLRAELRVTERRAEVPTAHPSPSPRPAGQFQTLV

The first assay addresses T1, human PD-1 (soluble PD-1 protein, R&D Systems) (human, UniProt Q15116 25-170, limits assumed).
T1 construct: the kinetics paragraphs say only 'PD-1' / 'antigen'; also called hPD-1; soluble PD-1 immunogen
The assay is described as follows: BLI, mAb on AHC biosensor, PD-1 as analyte. As for the experimental part:
The binding specificity and affinity of each full-length antibody towards PD-1 were determined using BLI and/or SPR. […] Anti-cyno PD-1 affinity was measured using BLI.
(§1) For BLI, antibodies were loaded onto an Anti-Human IgG Fc (AHC) biosensor using the Octet Red96 system (ForteBio). Loaded biosensors were dipped into antigen dilutions beginning at 300 nM, with 6 serial dilutions at 1:3. Kinetic analysis was performed using a 1:1 binding model and global fitting.
Background: Biolayer interferometry detects binding as a change in optical thickness at a sensor tip.
On to B1, for which the Kd (as a rule, a measure of binding affinity in units of concentration) is 792 nM.
B2: binding was put at a Kd of 13.8 nM.
For the molecule B3, the Kd was found to be 86.7 nM.
Regarding B4, the Kd was 18.4 nM.
B5 yielded a Kd of 8.3 nM.
In turn, B6 showed a Kd of 23.8 nM.
On to B7, for which the Kd came to 5.1 nM.
In turn, B8 yielded a dissociation constant (Kd) of 6 nM.
Molecule B9 displayed a Kd of 57.1 nM. This Kd is about 9.5-fold higher than that of the molecule before.
Molecule B10 had a Kd of 13 nM. This Kd lies about 4.4-fold lower than the previous one.
B11 came in with an equilibrium dissociation constant (Kd) of 148 nM.
The same measure, in the same setting: with B12 the figure was 83.8 nM; with B13, 8.5 nM.
Same read-out and setting: with B14 the figure was 86 nM; with B15, 326 nM; with B16, 412 nM.

For a further assay, the target named is T1, human PD-1 (soluble PD-1 protein, R&D …). Kind of assay: BLI (ForteBio), mAb on AHC biosensor, PD-1 as analyte. As for the experimental part: as §1
B1: the affinity, expressed as Kd, was 792 nM; the koff (as a rule, the first-order rate constant of dissociation) stood at 0.0579 s⁻¹; the kon (as a rule, the second-order rate constant of association) turned out to be 73100 M⁻¹ s⁻¹.
The molecule B2 yielded a Kd of 13.8 nM, a koff of 0.000972 s⁻¹ and a kon of 70400 M⁻¹ s⁻¹.
B3 gave an equilibrium dissociation constant (Kd) of 86.7 nM, an off-rate (koff) of 0.00294 s⁻¹ and a kon of 33900 M⁻¹ s⁻¹.
In the same order, the values of B4 are 18.4 nM, 0.00228 s⁻¹ and 124000 M⁻¹ s⁻¹.
Consider B5, for which binding was characterised by a dissociation constant (Kd) of 8.32 nM, the koff came to 0.00195 s⁻¹ and the on-rate (kon) turned out to be 235000 M⁻¹ s⁻¹.
The molecule B6 yielded a Kd of 23.8 nM, a koff of 0.00418 s⁻¹ and an on-rate constant (kon) of 176000 M⁻¹ s⁻¹.
B7: the Kd is 5.05 nM, the koff came out at 0.000516 s⁻¹ and the kon worked out at 102000 M⁻¹ s⁻¹.
In the case of B8, the equilibrium dissociation constant (Kd) worked out at 5.98 nM, the koff was 0.00104 s⁻¹ and the kon was determined as 174000 M⁻¹ s⁻¹.
As for B9, binding was characterised by a dissociation constant (Kd) of 57.1 nM, the koff is 0.00107 s⁻¹ and the on-rate (kon) is 18700 M⁻¹ s⁻¹.
With B10, binding was put at a Kd of 13 nM, the koff is 0.00142 s⁻¹ and the kon stood at 110000 M⁻¹ s⁻¹.
As for B11, the Kd was determined as 148 nM, the koff is 0.00191 s⁻¹ and the kon came out at 13000 M⁻¹ s⁻¹.
Take B12: the Kd turned out to be 83.8 nM, the off-rate (koff) was 0.00184 s⁻¹ and the kon amounted to 22000 M⁻¹ s⁻¹.
The molecule B13 gave a Kd of 8.5 nM, a koff of 0.00185 s⁻¹ and an on-rate constant (kon) of 217000 M⁻¹ s⁻¹.
On the same counts, the results for B14 are 86 nM, 0.00655 s⁻¹ and 76100 M⁻¹ s⁻¹.
In the same order, the values of B15 are 326 nM, 0.0079 s⁻¹ and 24200 M⁻¹ s⁻¹.
B16 gave a Kd of 412 nM, a koff of 0.00667 s⁻¹ and a kon of 16200 M⁻¹ s⁻¹.

The target of another assay is PD-1 expressed on cells (human, UniProt Q15116 25-288). Kind of assay: cell-based or functional assay.
Sequence of PD-1 expressed on cells (Q15116 25-288 limits assumed): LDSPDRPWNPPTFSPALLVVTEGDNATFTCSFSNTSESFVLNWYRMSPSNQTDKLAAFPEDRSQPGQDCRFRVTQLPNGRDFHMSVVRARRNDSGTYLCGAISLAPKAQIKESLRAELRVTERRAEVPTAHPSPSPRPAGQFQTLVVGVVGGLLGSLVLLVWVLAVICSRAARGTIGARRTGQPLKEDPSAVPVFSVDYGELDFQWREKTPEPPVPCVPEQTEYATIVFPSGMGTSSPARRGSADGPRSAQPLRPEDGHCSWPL
As for B2, the “PD-1/PD-L1 blockage (IC50, µg/ml)” value was 0.528 µg/mL.
For B6, the “PD-1/PD-L1 blockage (IC50, µg/ml)” value came out at 0.542 µg/mL.
For B7, the “PD-1/PD-L1 blockage (IC50, µg/ml)” value was determined as 3.16 µg/mL.
On to B8, for which the “PD-1/PD-L1 blockage (IC50, µg/ml)” value came to 0.641 µg/mL.
The same measure, in the same setting: the same measure for B9: over 3.16 µg/mL.
For the molecule B12, the “PD-1/PD-L1 blockage (IC50, µg/ml)” value was found to be 0.116 µg/mL.
Same read-out and setting: the same measure for B13: 0.266 µg/mL; for B14: 0.556 µg/mL.
With B15, the “PD-1/PD-L1 blockage (IC50, µg/ml)” value stood at 0.533 µg/mL.
